Assays:
[1] = molecular target: T1, biotinylated BirA-tagged Sal-1 DBP-II (Plasmodium vivax, UniProt P22290, biotin (added with BirA ligase on the BirA tag)); assay: BLI
[2] = molecular target: T1, biotinylated BirA-tagged Sal-1 DBP-II; assay: flow cytometry on cells

T1 sequence (P22290 211-525): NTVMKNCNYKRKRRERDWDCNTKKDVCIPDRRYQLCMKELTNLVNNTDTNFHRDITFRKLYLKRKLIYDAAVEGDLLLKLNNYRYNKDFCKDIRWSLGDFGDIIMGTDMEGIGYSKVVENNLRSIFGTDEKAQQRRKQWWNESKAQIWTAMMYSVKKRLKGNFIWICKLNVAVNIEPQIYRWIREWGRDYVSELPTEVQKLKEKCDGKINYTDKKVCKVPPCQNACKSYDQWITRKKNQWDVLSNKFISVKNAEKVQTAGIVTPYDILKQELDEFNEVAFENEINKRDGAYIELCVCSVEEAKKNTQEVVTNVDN

B1: 053054 single-chain variable fragment (scFv, V domains shown)
VH: QVQLQESGPGLVKPSQTLSLTCNVSGDSINSGDYYWIWIRQPPGKGLEWIGNIYYSGTAYYNPSLKTRLIISIDTSTNQFSLKVTSVTAADTAIYYCARASTTVVSPWLDPWGQGTLVTVSS
VL: SYELTQPSSVAVAPGQTARIPCGGDNIESKGVHWYQQKPGQAPVLVVYDDHDRPSGIPERFSGSNSGNTATLTVSRVEAGDEADYYCQVWDTSSEHPVFGGGTKLTVL
- Kd [1]: 7.44 ± 0.36 nM

B2: human monoclonal antibody 053054 (full-length IgG1) (antibody, V domains shown)
VH: QVQLQESGPGLVKPSQTLSLTCNVSGDSINSGDYYWIWIRQPPGKGLEWIGNIYYSGTAYYNPSLKTRLIISIDTSTNQFSLKVTSVTAADTAIYYCARASTTVVSPWLDPWGQGTLVTVSS
VL: SYELTQPSSVAVAPGQTARIPCGGDNIESKGVHWYQQKPGQAPVLVVYDDHDRPSGIPERFSGSNSGNTATLTVSRVEAGDEADYYCQVWDTSSEHPVFGGGTKLTVL
- IC50 [2]: 4.88 ± 1.06 nM

B3: 092096 single-chain variable fragment (scFv, V domains shown)
VH: QVQLVQSGAEVKKPGASVKVSCKVSGYTLTELSMHWVRQAPGKGLEWMGGFDREDGESIYAQKFQGRVTLTEDTSTDSVYMELSNLRSDDTAVYFCATDFGGSYFYAFDIWGQGTMVTVSS
VL: not shown
- Kd [1]: 7.63 ± 0.29 nM

B4: human monoclonal antibody 092096 (full-length IgG1) (antibody, V domains shown)
VH: QVQLVQSGAEVKKPGASVKVSCKVSGYTLTELSMHWVRQAPGKGLEWMGGFDREDGESIYAQKFQGRVTLTEDTSTDSVYMELSNLRSDDTAVYFCATDFGGSYFYAFDIWGQGTMVTVSS
VL: not shown
- IC50 [2]: 1.63 ± 1.07 nM
